In patent US20100221248A1:

Tests used:
[1] = molecular target: human FcγRIIIA, 158F 176F allele, soluble (human) (UniProt P08637); assay: SPR (Biacore T100), steady state, MBP-Fn3 immobilized, soluble FcR injected
[2] = molecular target: human FcγRIIIA, 158F 176V allele, soluble (human) (UniProt P08637); assay: as above

B1: MBP-IIIA537 (designed binder, not shown: large carriers)
chain: LGENLYFQSVSDVPRDLEVVVATPTSLLINWDLPFSDSYRITYGETGGNSPVQGFTVPGTESIATISGLKPGVDYTITVYAVASSGSNSYPISINYRTEIDKPSQ
For B1, the Kd [1] was 4.9 µM and the Kd [2] was 3.9 µM.
